Measurements as given in the RNAGym collection of RNA variant scans (doi:10.7554/elife.80360).

B1: Twister Ribozyme (parent)
chain: AACACUGCCAAUGCCGGUCCCAAGCCCGGAUAAAAGUGGAGGGGGCGG

Variants of: B1
Assay: self-cleavage, relative activity (ratio to wild type); higher = more cleavage; co-transcriptional
AACACUGCCAAUGCCGGUCCCAAGCCCGGAGAGAAGUGGAGGGGGCGG gave a self-cleavage of 1.02. For AACACUGCCAAUGCCGGUCCCAAGCCCGGGUAAAAGUGGAGGGGACGG, the self-cleavage was 0.901. Variant AACACUGCCAAUGCCGGUCCCAAGCCCGGGUAAAAGUGGAGGGGUCGG has a self-cleavage of 0.757. With AACACUGCCAAUGCCGGUCCCAAGCCCGGAAAAAAGUGGAGGGGCCGG the self-cleavage was 0.347. AACACUGCCAAUGCCGGUCCCAAGCCCGGAGUAAAGUGGAGGGGGCGG gave a self-cleavage of 0.765. AACACUGCCAAUGCCGGUCCCAAGCCCGGAGAAAAGUGGCGGGGGCGG gave a self-cleavage of 0.224. AACACUGCCAAUGCCGGUCCCAAGCCCGGAGAAAAGUGGGGGGGGCGG showed a self-cleavage of 0.0918. With AACACUGCCAAUGCCGGUCCCAAGCCCGGUUAAAAGUGGAGGUGGCGG the self-cleavage was 0.558. In the case of AACACUGCCAAUGCCGGUCCCAAGCCCGGUUAAAAGUGGAGGCGGCGG, the self-cleavage is reported as 0.229. AACACUGCCAAUGCCGGUCCCAAGCCCGGACCAAAGUGGAGGGGGCGG gave a self-cleavage of 0.965. AACACUGCCAAUGCCGGUCCCAAGCCCGGACGAAAGUGGAGGGGGCGG showed a self-cleavage of 0.997. For AACACUGCCAAUGCCGGUCCCAAGCCCGGAAAACAGUGGAGGGGGCGG, the self-cleavage was 0.536. AACACUGCCAAUGCCGGUCCCAAGCCCGGACAAAAGGGGAGGGGGCGG gave a self-cleavage of 1. AACACUGCCAAUGCCGGUCCCAAGCCCGGACAAAAGCGGAGGGGGCGG showed a self-cleavage of 0.587. AACACUGCCAAUGCCGGUCCCAAGCCCGGACAAAAGAGGAGGGGGCGG showed a self-cleavage of 0.892. AACACUGCCAAUGCCGGUCCCAAGCCCGGACAAAAGUGGAUGGGGCGG showed a self-cleavage of 0.764. In the case of AACACUGCCAAUGCCGGUCCCAAGCCCGGACAAAAGUGGAGGGGGCCG, the self-cleavage is reported as 0.745. AACACUGCCAAUGCCGGUCCCAAGCCCGGACAAAAGUGGAGGGGGCUG gave a self-cleavage of 1.02. In the case of AACACUGCCAAUGCCGGUCCCAAGCCCGGUUAAAAGUGGAAGGGGCGG, the self-cleavage is reported as 0.621. Variant AACACUGCCAAUGCCGGUCCCAAGCCCGGUUAAAAGUGGAGGGUGCGG has a self-cleavage of 0.973. AACACUGCCAAUGCCGGUCCCAAGCCCGGACAAAUGUGGAGGGGGCGG showed a self-cleavage of 1.06. Variant AACACUGCCAAUGCCGGUCCCAAGCCCGGGUAAAAGUGGAGGAGGCGG has a self-cleavage of 0.22. AACACUGCCAAUGCCGGUCCCAAGCCCGGGUAAAAGUGGAGGCGGCGG showed a self-cleavage of 0.225. Work on AACACUGCCAAUGCCGGUCCCAAGCCCGGGUAAAAGUGGAGCGGGCGG yielded a self-cleavage of 0.571. Variant AACACUGCCAAUGCCGGUCCCAAGCCCGGGUAAAAGUGGAGAGGGCGG has a self-cleavage of 0.413. Work on AACACUGCCAAUGCCGGUCCCAAGCCCGGAAAAAAGUGGAGUGGGCGG yielded a self-cleavage of 0.341. Variant AACACUGCCAAUGCCGGUCCCAAGCCCGGUUGAAAGUGGAGGGGGCGG has a self-cleavage of 0.928. In the case of AACACUGCCAAUGCCGGUCCCAAGCCCGGGUAAAAGUUGAGGGGGCGG, the self-cleavage is reported as 0.771. In the case of AACACUGCCAAUGCCGGUCCCAAGCCCGGAAAAAAGUGGAGGCGGCGG, the self-cleavage is reported as 0.168. AACACUGCCAAUGCCGGUCCCAAGCCCGGAAAAAAGUGGAGGAGGCGG gave a self-cleavage of 0.23. In the case of AACACUGCCAAUGCCGGUCCCAAGCCCGGAAAAAAGUGGAGGUGGCGG, the self-cleavage is reported as 0.233. For AACACUGCCAAUGCCGGUCCCAAGCCCGGACAAAAGUGGAGGGGGCGA, the self-cleavage was 0.901. For AACACUGCCAAUGCCGGUCCCAAGCCCGGACAAAAGUGGAGGGGGCGC, the self-cleavage was 1.2. For AACACUGCCAAUGCCGGUCCCAAGCCCGGUAAAAAGUGGAGGGGGCGG, the self-cleavage was 0.931. Variant AACACUGCCAAUGCCGGUCCCAAGCCCGGAAGAAAGUGGAGGGGGCGG has a self-cleavage of 0.985. In the case of AACACUGCCAAUGCCGGUCCCAAGCCCGGUUAAAAGUGGGGGGGGCGG, the self-cleavage is reported as 0.165. In the case of AACACUGCCAAUGCCGGUCCCAAGCCCGGUUAAAAGUGGCGGGGGCGG, the self-cleavage is reported as 0.2. Variant AACACUGCCAAUGCCGGUCCCAAGCCCGGUUAAAAGUGGUGGGGGCGG has a self-cleavage of 0.152. With AACACUGCCAAUGCCGGUCCCAAGCCCGGGUAAAAGUGGUGGGGGCGG the self-cleavage was 0.0959. With AACACUGCCAAUGCCGGUCCCAAGCCCGGGUAAAAGUGGCGGGGGCGG the self-cleavage was 0.215. In the case of AACACUGCCAAUGCCGGUCCCAAGCCCGGACAAAAGUGGUGGGGGCGG, the self-cleavage is reported as 0.149. In the case of AACACUGCCAAUGCCGGUCCCAAGCCCGGUUAAAAGUGGAGCGGGCGG, the self-cleavage is reported as 0.501. Work on AACACUGCCAAUGCCGGUCCCAAGCCCGGUUAAAAGUGGAGUGGGCGG yielded a self-cleavage of 0.434. Work on AACACUGCCAAUGCCGGUCCCAAGCCCGGACAUAAGUGGAGGGGGCGG yielded a self-cleavage of 1.08. In the case of AACACUGCCAAUGCCGGUCCCAAGCCCGGACAGAAGUGGAGGGGGCGG, the self-cleavage is reported as 0.891. For AACACUGCCAAUGCCGGUCCCAAGCCCGGGUAAAUGUGGAGGGGGCGG, the self-cleavage was 0.782. Work on AACACUGCCAAUGCCGGUCCCAAGCCCGGUUAAACGUGGAGGGGGCGG yielded a self-cleavage of 1.07. With AACACUGCCAAUGCCGGUCCCAAGCCCGGUUAAAGGUGGAGGGGGCGG the self-cleavage was 0.772. With AACACUGCCAAUGCCGGUCCCAAGCCCGGUUAAAUGUGGAGGGGGCGG the self-cleavage was 0.812. With AACACUGCCAAUGCCGGUCCCAAGCCCGGACAAAAGUGGAGAGGGCGG the self-cleavage was 0.363. Variant AACACUGCCAAUGCCGGUCCCAAGCCCGGACAAAAGUGGAGCGGGCGG has a self-cleavage of 0.413. Variant AACACUGCCAAUGCCGGUCCCAAGCCCGGAGAAAGGUGGAGGGGGCGG has a self-cleavage of 0.682. Work on AACACUGCCAAUGCCGGUCCCAAGCCCGGAGAAACGUGGAGGGGGCGG yielded a self-cleavage of 1.06. Variant AACACUGCCAAUGCCGGUCCCAAGCCCGGUUAAAACUGGAGGGGGCGG has a self-cleavage of 0.559.
